Results taken from IntAct's records for PubMed 26922829.

Each substance was assayed against crp_human CRP (UniProt P02741).
Chain of crp_human CRP (P02741 whole entry): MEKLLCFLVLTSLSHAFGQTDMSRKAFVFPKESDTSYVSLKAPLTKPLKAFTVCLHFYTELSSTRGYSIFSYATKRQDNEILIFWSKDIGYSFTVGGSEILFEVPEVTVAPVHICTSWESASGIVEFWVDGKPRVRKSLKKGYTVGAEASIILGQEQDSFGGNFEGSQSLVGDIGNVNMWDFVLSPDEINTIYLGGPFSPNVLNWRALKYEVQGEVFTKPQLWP

| effect of a mutation on the interaction | Substance |
| --- | --- |
| decreasing interaction strength | Collectin-12 (Homo sapiens), Q5KU26 R448A;R451A;R454A |
| decreasing interaction strength | Collectin-12 (Homo sapiens), Q5KU26 R448A;R451A;R454A;K466A;K469A;K472A;R496A;K499A;K502A |
| disrupting interaction strength | Collectin-12 (Homo sapiens), Q5KU26 R496A;K499A;K502A |
| with no effect | Collectin-12 (Homo sapiens), Q5KU26 K466A;K469A;K472A |
